Numbering of substitutions follows the chain as printed. Names and notes keep the numbering of the source.
Key:
[1] = molecular target: GST-RhoCL63 (Homo sapiens (species assumed), UniProt P08134, L63)
[2] = molecular target: T1, GST-RhoBL63 (Homo sapiens (species assumed), UniProt P62745, L63)
[3] = molecular target: GST-RhoAL63 (Homo sapiens (species assumed), UniProt P61586, L63)
[4] = molecular target: T2, endogenous RhoC (Homo sapiens (HeLa S3), UniProt P08134); assay: pull-down; CBD-pulldown: scFv-bound chitin beads (0,5-1 µg) with HeLa cell extracts loaded with GTPγS (100 µM), 45 min at 4°C; Western blot with anti-RhoA, anti-RhoB, anti-RhoC; GDP-loaded extracts beside it; conditions: one partner purified
T2 construct: RhoC, endogenous in HeLa S3 cells; source: endogenous, HeLa cell extract

[5] = molecular target: T3, endogenous RhoA (human (endogenous in HeLa), UniProt P61586); assay: as above; conditions: one partner purified
T3 construct: RhoA, endogenous in HeLa S3 cells; source: endogenous, HeLa cell extract

[6] = molecular target: T4, endogenous RhoB (human (endogenous in HeLa), UniProt P62745); assay: as above; conditions: one partner purified
T4 construct: RhoB, endogenous in HeLa S3 cells; source: endogenous, HeLa cell extract

[7] = molecular target: T1, GST-RhoBL63; assay: SPR; BIAcore T200; GST fusion Rho captured (about 1000 RU) by anti-GST antibody on CM5 chip, scFvs injected 6.25-100 nM, single-cycle kinetics, HBS-P pH 7.4, 25°C, GST alone as reference channel, 1:1 Langmuir model; conditions: both partners purified
[8] = molecular target: T5, recombinant wild type GST-RhoB (Homo sapiens (species assumed), UniProt P62745); assay: ELISA; purified scFvs on wild type GST-Rho loaded with GTPγS (from crude bacterial extracts) and captured on glutathione coated plates; GDP-loaded GST-Rho beside it; conditions: one partner purified
T5 construct: RhoB wild type, loaded with GDP or GTPγS; also called RhoBwt; GST-RhoBwt; source: E. coli BL21, crude bacterial extract, nucleotide-loaded

[9] = molecular target: T6, 6xHis-RhoBL63 (Homo sapiens (species assumed), UniProt P62745, L63); assay: ELISA; competitive ELISA (method of Friguet): purified scFvs (10^-9-10^-8 M) incubated until equilibrium (30 min, 23-25°C) with a range of concentrations of soluble 6xHis-RhoL63, free scFv then quantified on GST-Rho-coated plates with anti-c-myc-HRP; nonlinear regression; conditions: both partners purified
T6 construct: RhoB, mutant L63, cDNA in the pHIS parallel2 vector; also called 6his-RhoL63; source: E. coli BL21, purified (Ni-NTA, native condition); not shown: 6xHis, N-terminal, kept

[10] = molecular target: T7, 6xHis-RhoAL63 (Homo sapiens (species assumed), UniProt P61586, L63); assay: as above; conditions: both partners purified
T7 construct: RhoA, mutant L63, cDNA in the pHIS parallel2 vector; also called 6his-RhoL63; source: E. coli BL21, purified (Ni-NTA, native condition); not shown: 6xHis, N-terminal, kept

[11] = molecular target: T8, recombinant wild type GST-RhoA (Homo sapiens (species assumed), UniProt P61586); assay: ELISA; purified scFvs on wild type GST-Rho loaded with GTPγS (from crude bacterial extracts) and captured on glutathione coated plates; GDP-loaded GST-Rho beside it; conditions: one partner purified
T8 construct: RhoA wild type, loaded with GDP or GTPγS; also called RhoAwt; RhoA-GTPγS; source: E. coli BL21, crude bacterial extract, nucleotide-loaded
T8 sequence (P61586 whole entry): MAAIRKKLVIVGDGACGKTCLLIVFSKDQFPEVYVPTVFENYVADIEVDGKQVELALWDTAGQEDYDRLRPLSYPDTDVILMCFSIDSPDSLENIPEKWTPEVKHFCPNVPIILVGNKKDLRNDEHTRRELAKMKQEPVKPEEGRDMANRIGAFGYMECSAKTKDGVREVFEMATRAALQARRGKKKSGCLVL

T5 sequence (P62745 whole entry): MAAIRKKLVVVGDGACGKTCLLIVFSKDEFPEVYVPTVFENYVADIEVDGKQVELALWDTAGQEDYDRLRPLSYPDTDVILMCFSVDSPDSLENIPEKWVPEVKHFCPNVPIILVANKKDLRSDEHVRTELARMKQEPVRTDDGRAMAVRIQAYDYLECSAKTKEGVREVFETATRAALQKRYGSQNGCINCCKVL
T7 sequence (P61586 other isoform, or with tags, fused parts or gaps L63 | L63): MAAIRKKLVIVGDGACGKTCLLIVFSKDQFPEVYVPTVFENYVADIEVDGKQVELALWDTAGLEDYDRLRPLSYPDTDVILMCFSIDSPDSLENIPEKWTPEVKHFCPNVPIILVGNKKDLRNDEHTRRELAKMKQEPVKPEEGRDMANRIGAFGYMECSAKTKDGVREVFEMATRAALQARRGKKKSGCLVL
T2 sequence (P08134 whole entry): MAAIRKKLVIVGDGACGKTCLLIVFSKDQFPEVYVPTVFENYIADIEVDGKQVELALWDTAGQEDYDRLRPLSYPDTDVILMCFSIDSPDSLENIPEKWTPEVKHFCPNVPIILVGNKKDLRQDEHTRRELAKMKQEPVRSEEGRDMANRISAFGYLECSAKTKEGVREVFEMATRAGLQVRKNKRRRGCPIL
T3 sequence (P61586 whole entry): as the sequence (P61586 whole entry) above
T4 sequence (P62745 whole entry): as the sequence (P62745 whole entry) above
T6 sequence (P62745 other isoform, or with tags, fused parts or gaps L63 | L63): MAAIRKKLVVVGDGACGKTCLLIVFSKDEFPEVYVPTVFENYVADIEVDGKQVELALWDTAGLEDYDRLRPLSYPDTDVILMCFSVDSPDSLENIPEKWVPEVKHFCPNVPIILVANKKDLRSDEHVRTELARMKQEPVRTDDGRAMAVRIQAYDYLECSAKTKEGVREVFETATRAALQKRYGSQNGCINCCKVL
T1 sequence (P62745 other isoform, or with tags, fused parts or gaps L63 | L63): as above
GST-RhoCL63, sequence (P08134 other isoform, or with tags, fused parts or gaps L63 | L63): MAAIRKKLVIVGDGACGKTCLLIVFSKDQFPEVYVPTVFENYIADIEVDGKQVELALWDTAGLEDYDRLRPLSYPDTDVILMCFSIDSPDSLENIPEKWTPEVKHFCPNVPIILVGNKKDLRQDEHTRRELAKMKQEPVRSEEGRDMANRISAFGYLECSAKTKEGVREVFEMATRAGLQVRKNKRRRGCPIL
GST-RhoAL63, sequence (P61586 other isoform, or with tags, fused parts or gaps L63 | L63): as the sequence (P61586 other isoform, or with tags, fused parts or gaps L63 | L63) above

B1: C1 (scFvC1) (antibody, V domains shown)
VH: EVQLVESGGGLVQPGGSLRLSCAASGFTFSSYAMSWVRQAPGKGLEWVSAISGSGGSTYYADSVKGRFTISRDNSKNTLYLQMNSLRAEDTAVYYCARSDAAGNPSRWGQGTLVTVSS
VL: SSELTQDPAVSVALGQTVRITCQGDSLRSYYASWYQQKPGQAPVLVIYGKNNRPSGIPDRFSGSSSGNTASLTITGAQAEDEADYYCNSRDSSGNHAYVFGGGTKLTVL
- binding result [1]: binds
- binding result [2]: binds
- binding result [3]: binds

B2: scFvF7-NP3-CBD (scFvF7 in fusion with the Chitin Binding Domain, on chitin beads) (scFv, V domains shown)
VH: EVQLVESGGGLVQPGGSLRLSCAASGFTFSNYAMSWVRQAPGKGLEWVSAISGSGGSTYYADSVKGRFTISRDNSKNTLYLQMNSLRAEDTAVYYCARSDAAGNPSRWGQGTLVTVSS
VL: B1 VL with S89T
notes: as the scFv of m1; Order scFv, NP3, CBD from the plasmid pHEN-scFv-NCBD; not shown: NP3 (N-terminal domain of the phage P3 protein), C-terminal, kept
- binding result [4]: binds
- binding result [5]: binds
- binding result [6]: binds

B3: scFvE3-NP3-CBD (scFvE3 in fusion with the Chitin Binding Domain, on chitin beads) (scFv, V domains shown)
VH: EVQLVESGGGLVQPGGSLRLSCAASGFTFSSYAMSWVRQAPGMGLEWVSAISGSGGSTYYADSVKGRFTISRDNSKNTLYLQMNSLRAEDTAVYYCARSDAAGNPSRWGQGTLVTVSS
VL: B1 VL with A32T, L45R, I57V
notes: as the scFv of m3; Order scFv, NP3, CBD from the plasmid pHEN-scFv-NCBD; not shown: NP3 (N-terminal domain of the phage P3 protein), C-terminal, kept
- binding result [6]: binds

B4: scFvE3 (soluble, in fusion with the N-terminal domain of the phage P3 protein) (scFv, V domains shown)
VH: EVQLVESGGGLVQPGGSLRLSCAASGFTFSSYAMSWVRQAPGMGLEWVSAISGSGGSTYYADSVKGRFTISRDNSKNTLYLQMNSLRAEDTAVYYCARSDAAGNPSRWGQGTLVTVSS
VL: B1 VL with A32T, L45R, I57V
notes: evolved variant of scFvC1 with 4 substitutions located within the scaffold, without D100N; Isolated by subtractive panning (GST-RhoAL63 counter-selection, GST-RhoBL63 selection); also called clone E3; source: E. coli XL1 blue, periplasmic fraction, purified (Ni-NTA); not shown: NP3 (N-terminal domain of the phage P3 protein), C-terminal, kept
- fold higher affinity than for GST-RhoAL63 [7]: 10 fold
- binding result [8]: binds
- Kd [9]: 3.63 nM
- Kd [10]: 22.9 nM

B5: scFvF7 (soluble, in fusion with the N-terminal domain of the phage P3 protein) (scFv, V domains shown)
VH: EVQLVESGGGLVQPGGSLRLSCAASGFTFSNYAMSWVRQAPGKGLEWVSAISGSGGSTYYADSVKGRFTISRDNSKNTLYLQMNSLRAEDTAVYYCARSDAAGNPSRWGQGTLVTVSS
VL: B1 VL with S89T
notes: evolved variant of scFvC1 (VH, linker, VL); also called clone F7; source: E. coli XL1 blue, periplasmic fraction, purified (Ni-NTA); not shown: NP3 (N-terminal domain of the phage P3 protein), C-terminal, kept
- binding result [8]: binds
- binding result [11]: binds
- Kd [9]: 4.94 nM
- Kd [10]: 2.33 nM

B6: scFvD10-NP3-CBD (scFvD10 in fusion with the Chitin Binding Domain, on chitin beads) (scFv, V domains shown)
VH: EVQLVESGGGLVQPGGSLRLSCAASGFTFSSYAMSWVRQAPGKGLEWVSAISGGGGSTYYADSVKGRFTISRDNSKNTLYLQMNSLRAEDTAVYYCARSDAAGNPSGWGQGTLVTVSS
VL: B1 VL
notes: as the scFv of m2; Order scFv, NP3, CBD from the plasmid pHEN-scFv-NCBD; not shown: NP3 (N-terminal domain of the phage P3 protein), C-terminal, kept
- binding result [4]: binds
- binding result [5]: binds

B7: scFvD10 (soluble, in fusion with the N-terminal domain of the phage P3 protein) (scFv, V domains shown)
VH: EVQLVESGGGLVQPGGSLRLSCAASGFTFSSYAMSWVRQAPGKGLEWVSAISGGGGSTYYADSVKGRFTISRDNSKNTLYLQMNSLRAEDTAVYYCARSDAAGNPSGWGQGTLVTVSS
VL: B1 VL
notes: evolved variant of scFvC1 (VH, linker, VL); also called clone D10; source: E. coli XL1 blue, periplasmic fraction, purified (Ni-NTA); not shown: NP3 (N-terminal domain of the phage P3 protein), C-terminal, kept
- binding result [8]: no binding
- binding result [11]: binds
- Kd [10]: 3.38 nM

From article PMC4218836, “Generation of a Single Chain Antibody Variable Fragment (scFv) to Sense Selectively RhoB Activation” (PLoS ONE, 2014)
